Test results: paper PMC11066147 (Heliyon, 2024)
“And” between values parts separate entries of the source, which are not always exact repeats. Equal values may be shown once. Read-outs that look alike come from different tables or passages of the source.

B1: Plasmodium falciparum Hsp110 (PfHsp70-z, PF3D7_0708800) (natural protein)
chain: MSVLGIDIGNDNSVVATINKGAINVVRNDISERLTPTLVGFTEKERLIGDSALSKLKSNYKNTCRNIKNLIGKIGTDVKDDIEIHEAYGDLIPCEYNYLGYEVEYKNEKVVFSAVRVLSALLSHLIKMAEKYIGKECKEIVLSYPPTFTNCQKECLLAATKIINANVLRIISDNTAVALDYGMYRMKEFKEDNGSLLVFVNIGYANTCVCVARFFSNKCEILCDIADSNLGGRNLDNELIKYITNIFVNNYKMNPLYKNNTPELCPMGTGRLNKFLVTSTASDQQNGINNKVRIKLQEVAIKTKKVLSANNEASIHVECLYEDLDCQGSINRETFEELCSNFFLTKLKHLLDTALCISKVNIQDIHSIEVLGGSTRVPFIQNFLQQYFQKPLSKTLIADESIARGCVLSAAMVSKHYKVKEYECVEKVTHPINVEWHNINDASKSNVEKLYTRDSLKKKVKKIVIPEKGHIKLTAYYENTPDLPSNCIKELGSCIVKINEKNDKIVESHVMTTFSNYDTFTFLGAQTVTKSVIKSKDEKKKADDKTEDKGEKKDAKDQEQNDDKDQTNDNNMNEKDTNDKKEKNNETNSPNKTELKKGEEGKVQTCYTTIPIETLLAQGSYSSKDIFNFSEQEINMQHSDILEGERLKHLNELETIIYESRSRLNGIYKNFVMDDERDRILLSLDDYENWLYDNIEENKNMFIKKKEEIRDLIKNIVQKFDVYNSKQQNLGNIINHLNNIITQCSNKPSDESQNIINRTTKFLNNINSLQEQEKNKPLYEPPVYTLNDIEAEFNEVTQLAQKFFSKLEVEELAKQKAKQEKEKEKEKEKEKEKEKEKNEETNLDANEEQNNEAKNNEEKENSTKNENSANPEE
B2: Plasmodium falciparum heat shock protein 70-1 (PfHsp70-1) (natural protein)
chain: not shown

Columns and labels:
Assay in all cases: SPR
E. coli Hsp70 (DnaK) [1] = molecular target: T1, E. coli Hsp70 (DnaK) (E. coli, UniProt P0A6Y8 1-638)
[2] = molecular target: B1
[3] = molecular target: B2
E. coli Hsp70 (DnaK) [4] = molecular target: T1, E. coli Hsp70 (DnaK); remark: listed apart in the source
[5] = molecular target: B1; remark: listed apart in the source
[6] = molecular target: B2; remark: listed apart in the source
SPR = molecular target: the molecule itself
[7] = molecular target: B1; remark: listed apart in the source

Row | Binder | Kd (E. coli Hsp70 (DnaK) [1]) | Kd [2] | Kd [3] | Kd (E. coli Hsp70 (DnaK) [4]) | Kd [5] | Kd [6] | koff (SPR) | binding result [7]
1 | NRNNTG | 7310 ± 10 nM | 52.5 ± 0.05 nM | 296 ± 0.07 nM | 24.9 ± 0.09 nM | 24.1 ± 0.01 nM | 10.2 ± 0.02 nM |  | 
2 | ANNNMYRR | 8960 ± 60 nM | 8.31 ± 0.01 nM | 45.4 ± 0.07 nM | 440 ± 4 nM | 9.37 ± 0.07 nM | 4.02 ± 0.02 nM |  | 
3 | B1 |  |  |  |  |  |  | 5.27e-05 s⁻¹ and 7.73e-05 s⁻¹ and 3.37e-05 s⁻¹ | 
4 | B2 |  |  |  |  |  |  |  | binds
5 | ALLLMYRR | 4450 ± 50 nM | 97.1 ± 0.09 nM | 140 ± 0.4 nM | 82 ± 0.02 nM | 43.1 ± 0.01 nM | 61.8 ± 0.08 nM |  | 
6 | NRLLTG | 2530 ± 30 nM | 128 ± 0.08 nM | 181 ± 0.01 nM | 12.3 ± 0.03 nM | 145 ± 0.03 nM | 97.4 ± 0.04 nM |  | 
